Experimental data taken from patent US20090286854A1, “APTAMERS DIRECTED TO MUCI” (The Open University, published 2009).

How the values were obtained:
[1] = target: 5TR MUC1 recombinant protein (human); assay: affinity chromatography, elution from the MUC1 chromatography matrix
[2] = target: MUC1 5TR glycosylated with GalNAc (Tn antigen) (Homo sapiens, UniProt P15941 P15941:161-260); assay: pulldown; Ni-NTA magnetic beads, 100 mM NaCl, 5 mM MgCl2, pH 7.4, 37 C; values in figure only; conditions: tags: 6xHis; expressed in E. coli BL21; glycosylated in vitro with ppGalNAc-T1
Chain of MUC1 5TR glycosylated with GalNAc (Tn antigen) (P15941 141-240, one chain of several): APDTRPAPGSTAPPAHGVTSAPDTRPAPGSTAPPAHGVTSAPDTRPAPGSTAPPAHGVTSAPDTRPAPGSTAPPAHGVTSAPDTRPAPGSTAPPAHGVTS
Experimental: The Qiagen kit containing agarose magnetic beads in the proportion of 5% solution coated with nickel for His-tag purification was used for the assay. Seven tubes each containing 900 μl of start buffer (100 mM NaCl₂, 5 mM MgCl₂, pH 7.4) used to resuspend a 10 μM solution of glycosylated MUC1 5TR peptide were prepared according to manufacturer's instructions:
10 μl of the 5% beads solution was added to the solution and incubated at 4° C. for half an hour with shaking, After 30 minutes, supernatant was removed. The beads were washed by adding start buffer, allowing 1-5 min of washing time. 1 mM (500 μl) of each Glycosylated MUC1 aptamer solution in start buffer were added to the previously prepared magnetic beads containing his-tagged glycosylated MUC1. The solution containing complexed beads and aptamer solution were allowed to incubate at 37° C. for 1 hour with shaking.
After one hour the supernatant was removed and its absorbance was measured using a UV spectrometer (Eppendorf, USA) at 260 nm. The remaining Magnetic beads were washed three times with 500 μl of wash buffer (150 mM NaCl₂, 5 mM MgCl₂, pH 7.4). The supernatant was removed and 50 μl of elution buffer (1.5M NaCl₂, 5mM MgCl₂, pH 7.4) were added. The elution buffer was allowed to incubate with magnetic beads for 5 min with shaking. The magnetic beads were spun for 30 seconds at 4000 rpm to a pellet. The magnetic beads were attracted by a magnetic bar and supernatant was removed. The eluted supernatant was removed and measured using a UV spectrometer (Eppendorf, USA) 260 absorbance.

[3] = target: T1, MUC1 5TR (five tandem repeat recombinant MUC1, unglycosylated) (Homo sapiens, UniProt P15941 P15941:161-260); assay: SPR; 100 mM NaCl, 5 mM MgCl2, pH 7.4; printed ka 0.207e7, kd 0.00098 would give 0.47 nM; conditions: tags: 6xHis; expressed in E. coli BL21; biotin-XX labelled for SPR; about 11.8 kDa
T1 sequence (P15941 141-240, one chain of several): as above
Experimental: (§1) Biotinylated 5TR-MUC1 protein was immobilised on a BIAcore SA sensor chip (gold-streptavidin) and the system was optimised to reduce mass transport, steric hindrance, crowding, avidity and aggregation. A range of peptide concentrations, ranging from 1 μM to 1 nM were tested under different injection times and the optimum conditions used were 100 μL of 1 nM peptide in running buffer perfused over each individual channel at the rate of 25 μL/min for […]. Chip regeneration to peptide level was followed by the subsequent application of a 30 sec pulse with a solution of 10 mM NaOH. The aptamers were prepared in their selection buffers (phosphate buffer containing 100 mM NaCl, 5 mM MgCl₂, pH 7.4) at 1 μM and were applied with 30 sec injections with a 5 sec wash step with selection buffer to allow for non-specific analyte removal. The chip surfaces were regenerated (elution step) by the application of a 10 μL pulse of 1.5 M NaCl, 5 mM MgCl₂, pH 7.4.
(§2) The experimental BIAcore data were fitted to two mathematical equations for the determination of association (kₐ) and dissociation constants (kd) using non-linear regression analysis. […]
(§3) The concentration of free aptamer was assumed to be constant since an excess amount was applied to the system when compared to the amount of MUC1. […] The Kd was calculated from the following relationship: Kd is equal to kd/kₐ. […]

[4] = target: T1, MUC1 5TR (five tandem repeat …); assay: SPR; 100 mM NaCl, 5 mM MgCl2, pH 7.4; printed ka and kd would give 0.69 nM; conditions: tags: 6xHis; expressed in E. coli BL21; biotin-XX labelled for SPR; about 11.8 kDa
Experimental: as §1, §2, §3

[5] = target: T1, MUC1 5TR (five tandem repeat …); assay: SPR; 100 mM NaCl, 5 mM MgCl2, pH 7.4; printed ka and kd would give 0.83 nM; conditions: tags: 6xHis; expressed in E. coli BL21; biotin-XX labelled for SPR; about 11.8 kDa
Experimental: as §1, §2, §3

[6] = target: T1, MUC1 5TR (five tandem repeat …); assay: SPR; 100 mM NaCl, 5 mM MgCl2, pH 7.4; printed ka and kd would give 0.85 nM; p17 and claim list print SEQ 2 with 3' G instead of C; conditions: tags: 6xHis; expressed in E. coli BL21; biotin-XX labelled for SPR; about 11.8 kDa
Experimental: as §1, §2, §3

Chain of 5TR MUC1 recombinant protein (human) (main, as listed by the source): as the sequence (P15941 141-240, one chain of several) above

Molecule | binding result [2] | other results
C595 anti-MUC1 monoclonal antibody |  | NaSCN concentration at elution from the affinity matrix [1]: 0.8 M
GGGTTATATTACTCGGCCGGTGTAA (ssDNA) [5TR-T1] | binds | 
TAGCCTTAATGCCTTTGTAAGGCGA (ssDNA) [5TR-T6] | binds | 
CGGTCTACGGAGCCGCGTTAAACTT (ssDNA) [5TR-T7] | binds | 
GCTGGGTAAATAGATGATTCCCGGC (ssDNA) [5TR-T4] | binds | 
AGTGGTGGTTTTATAAGACTGATAC (ssDNA) [5TR-T5] | binds | 
GAAGTGAAAATGACAGAACACAACA (ssDNA) [MUC1 5TR-1] |  | Kd [3]: 47.3 nM
TACTGCATGCACACCACTTCAACTA (ssDNA) [MUC1 5TR-4] |  | Kd [4]: 69 nM
GGCGTACGGTAGGCGGGGTCAACTG (ssDNA) [5TR-T3] | binds | 
CAAACAATCAAACAGCAGTGGGGTG (ssDNA) [MUC1 5TR-3] |  | Kd [5]: 83 nM
GGCTATAGCACATGGGTAAAACGAC (ssDNA) [MUC1 5TR-2] |  | Kd [6]: 85.2 nM
